According to paper PMC9152305:

What was measured:
[1] = target: SARS-CoV-2 Omicron BA.2 spike extracellular domain trimer (SARS-CoV-2 Omicron BA.2) (UniProt P0DTC2); experiment: BLI
[2] = target: SARS-CoV-2 Omicron BA.2 spike extracellular domain trimer (SARS-CoV-2 Omicron BA.2) (UniProt P0DTC2); experiment: cryo-EM structure

JMB2002 IgG (antibody) gave a Kd [1] of 0.3 nM.
With JMB2002 Fab the Kd [1] was 2.6 nM and the stoichiometry N (Fab per spike trimer) [2] was 3.
